# Assay results as given in patent publication US20080199851A1.
# B1: 10F7 single chain antibody (scFv)
# scFv: QVQLQQPGAELVKPGASVKLSCKASGYTFTSYWMHWVKQRPGQGLEWIGEIDPSDSYTNYNQKFKGKATLTVDKSSSTAYMQLSSLTSEDSAVYYCARGGTGDFHYAMDYWGQGTSVTVSSGGGGSDILMTQSPSSMSVSLGDTVSITCHASQGISSNIGWLQQKPGKSFKGLIYHGTNLEDGVPSRFSGSGSGADYSLTISSLESEDFADYYCVQYVQFPYTFGGGTKLEIKR
# Biological target: Inactivated influenza H5N1, Ck HK Yu22/02 (Influenza A virus Ck/HK/Yu22/02 (H5N1))
# Assay: cell-based or functional assay
binder,measurement,value
B1,neutralization: dilution of 10F7 scFv (fold dilution),64
